Measurements taken from patent US20250186594A1.

Experiments:
[1] = target: Fc fused human IL-18BP isoform a (IL-18BPa) (human) (UniProt O95998); test: SPR, Fc-IL-18BPa captured, 1:1 fit
[2] = target: His-tagged human IL-18BP (human) (UniProt O95998); test: AlphaLISA of free IL-18BP
[3] = target: His-tagged human IL-18BP (human) (UniProt O95998); test: AlphaLISA of free IL-18BP (signal at 615 nm) after incubation of His-tagged human IL-18BP with a dilution series of the IL-18 polypeptide

Native IL-18 wild-type (SEQ ID NO: 1, native sequence), sequence (Q14116 37-193): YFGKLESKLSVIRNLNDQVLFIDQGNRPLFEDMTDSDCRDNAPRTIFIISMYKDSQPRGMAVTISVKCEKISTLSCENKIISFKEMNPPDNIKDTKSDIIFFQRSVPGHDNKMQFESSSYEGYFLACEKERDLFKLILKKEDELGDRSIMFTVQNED
Fc fused human IL-18BP isoform a (IL-18BPa) (human), sequence (O95998 31-194): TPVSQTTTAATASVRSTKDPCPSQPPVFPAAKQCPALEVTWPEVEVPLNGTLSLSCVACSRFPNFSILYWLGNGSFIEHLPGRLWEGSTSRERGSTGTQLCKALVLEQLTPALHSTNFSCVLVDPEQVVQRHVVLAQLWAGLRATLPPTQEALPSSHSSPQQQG

Substance	Kd [1]	koff [1]	kon [1]	Kd [2]	IC50 (read off the curve) [3]
IL-18 variant SEQ ID NO: 57 (E6K, C38S, K53A) (from UniProt Q14116 37-193) (ligand)	1.8 nM	0.00311 s⁻¹	1.63e+06 M⁻¹ s⁻¹	48.4 nM	–
IL-18 variant SEQ ID NO: 57 with 30 kDa PEG (E6K, C38S, K53A, C68-30kDPEG) (from UniProt Q14116 37-193) (ligand)	23 nM	0.00397 s⁻¹	177000 M⁻¹ s⁻¹	42.5 nM	–
IL-18 variant SEQ ID NO: 59 (E6K, C38A, K53A) (from UniProt Q14116 37-193) (ligand)	2.05 nM	0.00301 s⁻¹	1.47e+06 M⁻¹ s⁻¹	36.4 nM	–
IL-18 variant SEQ ID NO: 59 with 30 kDa PEG (E6K, C38A, K53A, C68-30kDPEG) (from UniProt Q14116 37-193) (ligand)	19.4 nM	0.00355 s⁻¹	199000 M⁻¹ s⁻¹	75.2 nM	–
IL-18 variant SEQ ID NO: 60 with 30 kDa PEG (E6K, C38Q, K53A, C68-30kPEG) (from UniProt Q14116 37-193) (ligand)	22 nM	0.00395 s⁻¹	193000 M⁻¹ s⁻¹	63.7 nM	–
IL-18 variant SEQ ID NO: 61 (E6K, C38A, K53A, C76A) (from UniProt Q14116 37-193) (ligand)	2.1 nM	0.0036 s⁻¹	1.74e+06 M⁻¹ s⁻¹	–	–
IL-18 variant SEQ ID NO: 61 with 30 kDa PEG (E6K, C38A, K53A, C76A, C68-30kPEG) (from UniProt Q14116 37-193) (ligand)	37.4 nM	0.00382 s⁻¹	102000 M⁻¹ s⁻¹	–	–
IL-18 variant SEQ ID NO: 62 (E6K, C38A, K53A, C127A) (from UniProt Q14116 37-193) (ligand)	1.96 nM	0.00315 s⁻¹	1.61e+06 M⁻¹ s⁻¹	69.6 nM	–
IL-18 variant SEQ ID NO: 62 with 30 kDa PEG (E6K, C38A, K53A, C127A, C68-30kPEG) (from UniProt Q14116 37-193) (ligand)	24 nM	0.00342 s⁻¹	142000 M⁻¹ s⁻¹	29.3 nM	–

Second part, the substance after the results:

Kd [1]	koff [1]	kon [1]	Kd [2]	IC50 (read off the curve) [3]	Substance
3.05 nM	0.00345 s⁻¹	1.05e+06 M⁻¹ s⁻¹	24.6 nM	8 nM	IL-18 variant SEQ ID NO: 30 (E6K, V11I, C38A, K53A, T63A, C76A, C127A) (from UniProt Q14116 37-193) (ligand)
4.75 nM	0.00386 s⁻¹	813000 M⁻¹ s⁻¹	19.7 nM	–	IL-18 variant SEQ ID NO: 30 with 5 kDa PEG (E6K, V11I, C38A, K53A, T63A, C76A, C127A, C68-5kPEG) (from UniProt Q14116 37-193) (ligand)
6.83 nM	0.0036 s⁻¹	527000 M⁻¹ s⁻¹	15.7 nM	–	IL-18 variant SEQ ID NO: 30 with 10 kDa PEG (E6K, V11I, C38A, K53A, T63A, C76A, C127A, C68-10kPEG) (from UniProt Q14116 37-193) (ligand)
12 nM	0.00397 s⁻¹	330000 M⁻¹ s⁻¹	19.7 nM	–	IL-18 variant SEQ ID NO: 30 with 20 kDa PEG (E6K, V11I, C38A, K53A, T63A, C76A, C127A, C68-20kPEG) (from UniProt Q14116 37-193) (ligand)
45.1 nM	0.00451 s⁻¹	106000 M⁻¹ s⁻¹	26.3 nM	–	IL-18 variant SEQ ID NO: 30 with 30 kDa PEG (E6K, V11I, C38A, K53A, T63A, C76A, C127A, C68-30kPEG) (from UniProt Q14116 37-193) (ligand)
1.7 nM	0.00308 s⁻¹	1.87e+06 M⁻¹ s⁻¹	24.8 nM	–	IL-18 variant SEQ ID NO: 60 (E6K, C38Q, K53A) (from UniProt Q14116 37-193) (ligand)
1.5 nM	0.00424 s⁻¹	2.82e+06 M⁻¹ s⁻¹	20.3 nM	–	IL-18 variant SEQ ID NO: 63 (E6K, C38A, K53A, C76A, C127A) (from UniProt Q14116 37-193) (ligand)
–	–	–	0.14 nM	–	IL-18 variant SEQ ID NO: 230 (K8L, E6K, V11I, C38A, K53A, T63A, C76A, C127A) (from UniProt Q14116 37-193) (ligand)
–	–	–	25.8 nM	–	IL-18 variant SEQ ID NO: 232 (E6K, V11I, C38A, I49M, K53A, T63A, C76A, C127A) (from UniProt Q14116 37-193) (ligand)
–	–	–	5.46 nM	–	IL-18 variant SEQ ID NO: 240 (E6R, V11I, C38A, K53A, T63A, C76A, C127A) (from UniProt Q14116 37-193) (ligand)
–	–	–	2.25 nM	–	IL-18 variant SEQ ID NO: 243 (Y1M, E6K, V11I, C38A, K53A, T63A, C76A, C127A) (from UniProt Q14116 38-193) (ligand)
0.246 nM	0.00038 s⁻¹	1.28e+06 M⁻¹ s⁻¹	0.411 nM	0.6 nM	Native IL-18 wild-type (SEQ ID NO: 1, native sequence) (from UniProt Q14116 37-193) (ligand)
